From paper PMC4242106 (Science translational medicine, 2010) come the findings set out here.

The format of this data set is in vivo, human. The note with it: mean of the five repeat experiments; subcutaneous; controller PK setting SLOW.

For Insulin lispro, the “Inferred lispro PK t95%, Mean” value worked out at 8.9 h and the “Inferred lispro PK tmax, Mean” value was 1.48 h.
